This note sets out measurements from patent US9694061B2, “Fully human antibodies to high molecular weight-melanoma associated antigen and uses thereof” (University of Pittsburgh—Of the Commonwealth System of …, priority 2008, dated 2017).

For assay [1], the system named is HMW-MAA. Description: ELISA of soluble scFv antibodies with cell lines. It is filed as binding, human. The note with it: soluble scFv clones isolated by panning with Colo38 cells. The protocol:
FIG. 1. Selective reactivity in ELISA of soluble scFv C21 with HMW-MAA^+ human cell lines. […] Binding of scFv fragments was detected using SA-HRP. Results are expressed as absorbance at 490 nm. Human anti-anti-id scFv #119 ( ? ) was used as a specificity control.
The ELISA to test the reactivity of soluble scFv antibodies with synthetic peptides and melanoma cells and of mouse immune sera with melanoma cells and with peptides was performed as described (Desai et al., Cancer Res 58:2417-2425, 1998; Desai et al., J Immunol 165:3275-3283, 2000; Matsui et al., J Immunol 139:2088-2095, 1987). Results are expressed as absorbance of optical density (O.D.) at 450 nm. The competition assay to map the antigenic determinant recognized by scFv C21 was performed by mixing biotinylated scFv C21 (0.25 μg/well) with two-fold dilutions of mouse mAb or scFv PP or by mixing biotinylated mAb (at an optimal amount giving absorbance, measured at 450 nm of 1.0) with two fold dilutions of scFv PP. […] Binding of biotinylated scFv antibodies and biotinylated mAb to target cells was measured by sequential incubation with SA-HRP and substrate as described (Noronha et al., J Immunol 161:2968-2976, 1998). The results are expressed as percent inhibition by mAb, scFv or peptide (competitor or inhibitor) of scFv or mAb binding to HMW-MAA^+ cells. […]
On the technique in general: An ELISA detects its analyte on a solid surface through an enzyme-linked reagent.

For assay [2], the target named is T1, HMW-MAA (Homo sapiens, UniProt Q6UVK1). Description: Flow cytometry of M14/HMW-MAA transfectants and parental M14 cells stained with scFv. The assay is classed as binding. On the set-up: from tissue; host or cells: human nevi, primary and metastatic melanoma lesions (frozen sections). The protocol: FIG. 2. Flow cytometry analysis of HMW-MAA^+ M14#5/HMW-MAA melanoma cells stained with scFv C21. M14#5/HMW-MAA transfectants and parental HMW-MAA^− M14#5 cells were incubated on ice with PP scFv C21 and mAb 9E10 (empty histogram) and control PP scFv 119 and mAb 9E10 (grey histogram) (top panel), with HMW-MAA-specific mouse mAb 763.74 (0.5 μg) (empty histogram) and control mAb MK2-23 (grey histogram) (middle panel) and with HLA class I antigen-specific mAb TP25.99 (empty histogram) and control mAb MK2-23 (grey histogram) (bottom panel). Binding of antibodies was detected using RPE-labeled F(ab′)2 fragments of goat anti-mouse Ig antibodies. Cells were analyzed with a FACScan™ flow cytometer. Results are expressed as fluorescence intensity.
T1 sequence (Q6UVK1 30-2322): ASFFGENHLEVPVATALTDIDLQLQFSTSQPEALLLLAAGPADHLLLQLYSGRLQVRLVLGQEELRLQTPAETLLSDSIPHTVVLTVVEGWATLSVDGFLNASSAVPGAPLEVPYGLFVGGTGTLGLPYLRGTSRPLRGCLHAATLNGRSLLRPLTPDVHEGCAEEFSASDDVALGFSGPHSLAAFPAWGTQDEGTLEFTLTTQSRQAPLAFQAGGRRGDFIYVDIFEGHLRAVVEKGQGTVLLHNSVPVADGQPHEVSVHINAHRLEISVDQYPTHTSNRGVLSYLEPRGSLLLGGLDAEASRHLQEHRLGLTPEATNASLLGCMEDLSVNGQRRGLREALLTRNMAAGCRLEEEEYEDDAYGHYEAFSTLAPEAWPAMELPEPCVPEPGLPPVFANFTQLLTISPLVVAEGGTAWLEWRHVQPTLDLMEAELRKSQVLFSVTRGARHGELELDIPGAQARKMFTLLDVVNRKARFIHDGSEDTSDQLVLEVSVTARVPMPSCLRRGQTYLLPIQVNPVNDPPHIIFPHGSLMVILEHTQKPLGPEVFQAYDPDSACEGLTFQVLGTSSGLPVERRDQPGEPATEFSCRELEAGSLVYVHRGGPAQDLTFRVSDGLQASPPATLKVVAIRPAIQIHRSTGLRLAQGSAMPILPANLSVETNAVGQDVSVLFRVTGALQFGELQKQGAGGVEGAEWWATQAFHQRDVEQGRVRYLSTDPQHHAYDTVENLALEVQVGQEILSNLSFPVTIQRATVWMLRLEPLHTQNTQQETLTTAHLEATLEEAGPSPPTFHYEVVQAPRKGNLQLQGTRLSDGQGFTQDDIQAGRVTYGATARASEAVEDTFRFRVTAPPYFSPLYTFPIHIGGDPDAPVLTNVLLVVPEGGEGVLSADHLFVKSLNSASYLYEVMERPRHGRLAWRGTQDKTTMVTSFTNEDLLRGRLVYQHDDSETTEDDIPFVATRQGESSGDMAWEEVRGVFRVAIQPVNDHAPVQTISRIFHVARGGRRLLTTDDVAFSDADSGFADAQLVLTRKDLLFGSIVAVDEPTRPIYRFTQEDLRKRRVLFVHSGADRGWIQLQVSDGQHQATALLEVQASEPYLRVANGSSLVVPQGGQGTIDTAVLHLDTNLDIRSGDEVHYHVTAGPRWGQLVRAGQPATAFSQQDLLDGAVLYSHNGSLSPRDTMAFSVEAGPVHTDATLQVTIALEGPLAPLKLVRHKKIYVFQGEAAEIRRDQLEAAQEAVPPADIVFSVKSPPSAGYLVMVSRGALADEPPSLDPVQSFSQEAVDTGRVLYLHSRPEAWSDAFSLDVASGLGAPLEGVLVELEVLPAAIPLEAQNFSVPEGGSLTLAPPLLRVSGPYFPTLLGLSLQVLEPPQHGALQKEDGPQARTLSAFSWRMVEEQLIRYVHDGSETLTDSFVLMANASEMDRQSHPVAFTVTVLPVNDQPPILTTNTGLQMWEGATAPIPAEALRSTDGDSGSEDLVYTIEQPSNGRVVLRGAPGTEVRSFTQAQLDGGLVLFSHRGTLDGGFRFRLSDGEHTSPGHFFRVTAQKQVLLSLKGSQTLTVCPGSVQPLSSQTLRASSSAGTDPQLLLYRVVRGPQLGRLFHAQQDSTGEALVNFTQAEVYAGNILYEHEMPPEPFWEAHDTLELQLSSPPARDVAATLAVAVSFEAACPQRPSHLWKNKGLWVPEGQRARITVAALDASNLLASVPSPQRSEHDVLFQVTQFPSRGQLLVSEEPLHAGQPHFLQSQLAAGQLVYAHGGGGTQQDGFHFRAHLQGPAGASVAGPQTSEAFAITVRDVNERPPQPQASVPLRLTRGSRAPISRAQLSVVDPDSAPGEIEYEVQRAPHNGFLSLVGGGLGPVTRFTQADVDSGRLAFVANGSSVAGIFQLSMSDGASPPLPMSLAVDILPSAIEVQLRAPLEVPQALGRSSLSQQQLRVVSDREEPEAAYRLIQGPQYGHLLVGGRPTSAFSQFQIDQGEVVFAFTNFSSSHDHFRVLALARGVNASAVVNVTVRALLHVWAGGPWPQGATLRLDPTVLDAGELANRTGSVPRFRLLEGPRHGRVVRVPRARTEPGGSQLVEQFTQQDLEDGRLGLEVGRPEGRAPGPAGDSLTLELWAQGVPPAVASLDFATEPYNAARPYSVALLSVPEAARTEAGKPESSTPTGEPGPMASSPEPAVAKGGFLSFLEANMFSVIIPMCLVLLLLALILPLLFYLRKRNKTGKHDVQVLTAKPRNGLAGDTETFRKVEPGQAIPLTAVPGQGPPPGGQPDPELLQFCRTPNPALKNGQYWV
Flow cytometry analysis of melanoma cells stained with scFv antibodies or antibodies in immune sera was performed as described (Wang et al., J Immunol Methods 294:23-35, 2004, herein incorporated by reference). […] Following two washes, cells were fixed in 2% formaldehyde and analyzed with a FACScan™ flow cytometer (BD Biosciences, San Jose, Calif.). A total of 10,000 cells were counted using a forward and side scatter gate to eliminate aggregates and debris for each sample. Results are expressed as relative fluorescence intensity.

The target in assay [3] is T1, HMW-MAA. Description: Indirect immunoprecipitation and SDS-PAGE from labeled Colo38 cell lysate. It is filed as binding. The protocol:
FIG. 3. Structural relationship between molecules recognized by scFv C21 and by HMW-MAA-specific mouse mAb 763.74 in a HMW-MAA^+ Colo38 cell lysate. A 1% NP-40 extract of ^125I-labeled Colo38 cells was immunodepleted with mAb 763.74. The immunodepleted cell extract was immunoprecipitated with insolubilized mAb 763.74 and scFv C21. Antigens were eluted and analyzed by SDS-PAGE in an 8% polyacrylamide gel. Gels were fixed, dried and autoradiographed for up to 1 day at −80° C. A 1% NP-40 extract of ^125I-labeled Colo38 cells immunodepleted with 100 kD MAA-specific mouse mAb 376.94 was used as a control.
FIG. 4. Role of N-linked glycosylation in the expression of the antigenic determinant recognized by scFv C21 on HMW-MAA isolated from a HMW-MAA^+ Colo38 cell extract. A 1% NP-40 extract of Colo38 cells labelled with ^35S-methionine in the presence of tunicamycin (0, 2 and 3 μg/ml,) was immunoprecipitated with scFv C21. Antigens were eluted from the immunoadsorbent and analyzed by SDS-PAGE in an 8% polyacrylamide gel. Gels were fixed, dried and processed for fluorography for up to three days at −80° C. using Hyperfilm-ECL. HMW-MAA-specific mouse mAb 763.74 was used as a control.
Labeling of cells with ^125Iodine (Na^125 I; Amersham) or with ^35S methionine (Trans-^35S-label, ICN Biochemicals, Costa Mesa, Calif.) in the presence of tunicamycin (Sigma Chemical Co.) was performed as described (Noronha et al., J Immunol 161:2968-2976, 1998; Desai et al., J Immunol 165:3275-3283, 2000). Solubilization of labelled cells, immunoprecipitation, SDS-PAGE, autoradiography and fluorography were performed as described (Desai et al., Cancer Res 58:2417-2425, 1998) except for the use of Gammon Bind plus sepharose (Amersham) instead of protein A coated with rabbit anti-mouse IgG antibodies.

B1: scFv C21: HMW-MAA-specific fully human scFv from semi-synthetic phage display library; VH SEQ ID NO: 5, VL SEQ ID NO: 6 (antibody, listed as Homo sapiens, V domains shown)
VH: QVQLVQSGAEVKKPGSSVKVSCKASGGTFSSYAISWVRQAPGQGLEWMGGIIPIFGTANYAQKFQGRVTITADESTSTAYMELSSLRSDDTAVYYCARALDPITFDSWGQGTLVTVSR
VL: SELTQDPAVSVALGQTVRITCQGDSLRSYYASWYQQKPGQAPVLVIYGKNNRPSGIPDRFSGSSSGNTASLTITGAQAEDEADYYCNSRDSSGNHVVFGGGTKLTVLGRS
modifications: scFv linker
In the case of B1, in assay [1], the “Reactivity in ELISA with Colo38, FF2376 fibroblasts and T24 bladder carcinoma cells” value is recorded as “selective reactivity with Colo38 cells”. In addition, in assay [2] (M14 cells stably transfected with full length HMW-MAA), the “Flow cytometry staining of HMW-MAA transfected M14 cells” value is “stained M14 cells which express HMW-MAA”. For the same molecule, the “Flow cytometry staining of parental M14 cells” value in assay [2] (parental M14 cells, do not express HMW-MAA) was “did not stain the parental M14 cells”. In assay [3], the “Effect of immunodepletion of Colo38 cell lysate with scFv C21 on components immunoprecipitated by mAb 763.74” value is given as “removed most, but not all the components immunoprecipitated by mAb 763.74” and the “Immunoprecipitation from 125I labeled Colo38 cells” value is on record as “immunoprecipitated two components with the characteristic elecrophoretic profile of HMW-MAA components”. The “Intensity of HMW-MAA components immunoprecipitated from Colo38 cells labeled in the presence of tunicamycin” value in assay [3] (35S-methionine labeling, N-glycosylation inhibitor tunicamycin) was “marked reduction in the intensity of the HMW-MAA components immunoprecipitated”. Besides, the “Immunoprecipitation from Colo38 cell lysate immunodepleted with mAb 763.74” value in assay [3] (sequential immunoprecipitation) is “did not immunoprecipitate any components”. In assay [3] (specificity control of immunodepletion), the “Immunoprecipitation from Colo38 cell lysate immunodepleted with 100KD MAA-specific mAb 376.96” value is listed as “immunoprecipitated the HMW-MAA components”.
